Assay results reported in the DeepSol protein solubility set.

Test: soluble on expression in E. coli; label from the status in PepcDB or PDB records

With “MNPKEQSSYLYEQYDDALGEQLKPITSQYVLQDLNKNSSKQKAQVVQKVDSEYVLRDLRNQADQNQNFSRDAPNRPFLTGTPVNAKEIRSQIESLDNAIVIPQIINGKVFFTTHGDADARTAVEGSVSNPNLNETNVGASKPEGVDLSKMKFTFAQLVALLGPSTCQRLEREFVKKNRLSDAEMSQLRTARESISELNLATGRSTDTLRTAQSVEPNLLSIRTANSLEPNLLSVYSARSPGVFTKKEGMLTAQSPEPNLLSVRTANSLEPNLLSVKPAKELTTISNLKAQSPGLLTAQSAEPNLLSTRTARSSSNTSLIDTESKDVQTCIEIQSPTTGVLTAQSIATPSGSCQSVFTAKEIESIRSSQDVLTAVEILTDMSRSSQDVRTALEISE” the “soluble on expression in E. coli” value was “not soluble”.
With “MKKYVCTVCGYEYDPAEGDPDNGVKPGTSFDDLPADWVCPVCGAPKSEFEAA” the “soluble on expression in E. coli” value was “soluble”.
With “MYKLDLPTLMDAFHKVFHVSMLRKCITHQENVISEPPPDLLENMMIVGMLIPNLLGVSSEMVGR” the “soluble on expression in E. coli” value was “not soluble”.
With “MDGYEEYTVLKEWEKTHKNEEIYSIRFGGNYMIDMKDGIKLSTDVYLPDFVDSAKKAPTILMRTPYGKENDKEIYYKYVQRGYAVVIQDVRGRNESEGKWEPMIHEREDGDSTINWIVSQEWSSGIVGMLGASYLGYVQWAAASSGNKHLKALVSIVTSGSPFIDIPRKGGAFVSGMLAWAFMVSRNKVDRSKMVRDDWDDVLNIRPIENIPVEALGYRIEFLEEWLKRVEKDEYWDLMDWHLQKDKINVPALVVSGWYDDNSMGTTEALDVIKDYEKGKRKAILGPWMHNSNTLRDINGISLGNSSLRYDLDYNYLLWFDKYLKGIENNIDTTAPVEYYSVGSNKWKTEE” the “soluble on expression in E. coli” value was “not soluble”.
For “AGMDVRESISLQNQVSMNLAKHVITTVSQNSNVIFSPASINVVLSIIAAGSAGATKDQILSFLKFSSTDQLNSFSSEIVSAVLADGSANGGPKLSVANGAWIDKSLSFKPSFKQLLEDSYKAASNQADFQSKAVEVIAEVNSWAEKETNGLITEVLPEGSADSMTKLIFANALYFKGTWNEKFDESLTQEGEFHLLDGNKVTAPFMTSKKKQYVSAYDGFKVLGLPYLQGQDKRQFSMYFYLPDANNGLSDLLDKIVSTPGFLDNHIPRRQVKVREFKIPKFKFSFGFDASNVLKGLGLTSPFSGEEGLTEMVESPEMGKNLCVSNIFHKACIEVNEEGTEAAAASAGVIKLRGLLMEEDEIDFVADHPFLLVVTENITGVVLFIGQVVDPLH”, the “soluble on expression in E. coli” value was “soluble”.
For “MQSEKIAQLKAALQNFSASNSDLFDYALEEEKAKVRKRALLLLDQRARSVYELTNRLISADFDPNIVEYVVEDLVRANLLNDENFSREWVRQRRQRRGKSRQALTRELRDKGIKSEIIADVVGDIQPEDEQDIARELAYKKVRSLKKEPCDYPEYQKVLRRTVGVLARRGFSQSMALEIAREAIDARIDEIRR”, the “soluble on expression in E. coli” value was “not soluble”.
In the case of “MSLDEIKSGKYKHGDKLPTEKELMERFNASRETVRKALERLVVKNLVIRKPGLGTFVNIEKKNKVVGILVQQITSYIFPYIALGAEEVLFANGYKMLLGNASEDPHKERQIINEWLEVGVDGLIIDPVYSATKRSNRDLIEDMAKKGTKVVLVHTNWDIEGVGSVVLDDWYGGEKAAEIFYQYGHRNVAVLYKTIHLPSVVRAQAFLKRGRELGFEKVHEKSFHVSEFTGIVMQSAFELLSLPKDQRPTAVFCYNDATALQFFLAAKRMGLKIPEDVSVIGFDDAPIGDFREILTTFEHPKEEVGKKAVEILLKMIDGEKPEKYVFKPKLIMRESVTYPKEGHHHHHH”, the “soluble on expression in E. coli” value is reported as “soluble”.
With “GPQDPDKRRKTLVIIEKTYSLLLDVEDYERRYLLSLEEERPALMDDRKHKICSMYDNLRGKLPGQERPSDDHFVQIMCIRKGKRMVARILPFLSTEQAADILMTTARNLPFLIKKDAQDEVLPCLLSPFSLLLYHLPSVSITSLLRQLMNLPQSAATPALSNPHLTAVLQNKFGLSLLLILLSRGEDLQSSDPATESTQNNQWTEVMFMATRELLRIPQAALAKPISIPTNLVSLFSRYVDRQKLNLLETKLQLVQ” the “soluble on expression in E. coli” value was “soluble”.
For “MSLLSSEGPIFYVQERIGQNYKPFNCIKFRTMVSNADEVLMQMMETSPQLRQEFESSFKLKKDPRITKIGQFLRITSLDEFPQFWNVLKGDMSVVGPRPLVAEELPKYGDHIEQVLTIRPGITGLWQVSGRNDIPYPRRVQIDLHYVKSRTLWLDLWIILKTIDVVIMPKNNGAYEGHHHHHH”, the “soluble on expression in E. coli” value was “soluble”.
For “MAHHHHHHMQAAAPGQTLSSALRFWADVSYGDAPPAALIDYPPLGFEEDSSRLTVGALQASRDAAAADSRRQLGLKTQRASEDVDGSAHPALLLGVKEESSTLAVTREELEGEEGPAWLQPPLLLQLDDGLEDRQFAAATTTGRTAPVPHLRYDGAGLLAVMHVHSSGIAYVGYPRASDTVSSAEPTDGLVRLPDNVPPADPLAVAAPTPAPICSLPMSSSTGFVRGLLGLS”, the “soluble on expression in E. coli” value was “not soluble”.
With “MGSDKIHHHHHHMRPAFAGIDFGTSNSTVGVVRNGQPHLVALEGGQVTLPSAVFFNFEDGRICFGRQAIANYTDSVEGRLMRSLKSVLGSSLAHEKTRIKARSIGFMEIIGLFLGHLRKKLEEDGGDLVETVVLGRPVQFVDDDPQADANAQSDLEKAAHAQGFKHIAFQFEPIAAALDYEQRVTREELALIIDMGGGTSDFSVVRVSPERARLPDRKDDILASRGVHIGGTDFDRLLSIAHVMPQLGYLTPTKDGKRNLPASYFIDLATWQRINLVYTAKAMTHLRQIRYEAARADLVDRFIHIVEHRYGHALAALVEKAKIELTDLSSAEVAVRLSDVEFAAEITRDGLDATIAREIERVTATVAETMRDAAVKPSDITAVFLTGGSTAIPLARREILSLVPQASVIDGDMFGSVGLGLALDAQRKFG” the “soluble on expression in E. coli” value was “not soluble”.
For “PEPAQQQAPVEKPKKKAKLEVIGDDVVSIMVSLRWLEFLLDNYGPENTLDVLDYYESLGWISATVKEQMMKYAKMTGVMNPAQEYKIKPSIQDHIINMLFIEKLRGEEINRDLIEALEREFRTIRKGVDELYGI”, the “soluble on expression in E. coli” value was “not soluble”.
For “MLRSLVQNPKVRARVLERVDEFRLNNLSNEEVWFRELTLCLLTANSSFISAYQALNCLGQKIYYANEEEIRNILKSCKYRFYNLKAKYIIMAREKVYGRLKEEIKPLADEDQQLARERLLNIKGIGMQEASHFLRNVGYFDLAIIDRHIIDFMRRIGAIGETNVKQLSKSLYISFENILKSIASNLNMSVGILDLFIWYKETNTIVK”, the “soluble on expression in E. coli” value was “soluble”.
With “MSLLSKFKRNKHQQHLAQLPKISQSVDDVDFFYTPATFRETLLEKIASATQRICIVALYLEQDDGGKGILDALYAAKRQRPELDVRVLVDWHRAQRGRIGAAASNTNADWYCRLAQENPGIDVPVYGVPINTREALGVLHFKGFIIDDSVLYSGASLNDVYLHQHDKYRYDRYQLIRNRQMADIMFDWVTQNLMNGRGVNRLDNTQRPKSPEIKNDIRLYRQELRDASYHFQGDANDEQLSVTPLVGLGKSSLLNKTIFHLMPCAEHKLTICTPYFNLPAVLVRNIIQLLRDGKKVEIIVGDKTANDFYIPEDEPFKIIGALPYLYEINLRRFLSRLQYYVNTDQLVVRLWKDDDNTYHLKGMWVDDKWMLLTGNNLNPRAWRLDLENAILIHDPKQELAPQREKELELIRTHTTIVKHYRDLQSIADYPIKVRKLIRRLRRIRIDRLISRILEGHHHHHH” the “soluble on expression in E. coli” value was “soluble”.
For “MDDYVPIPFTLLKLPQKSIDVVLRRMCIEALVELSFTSKAAMQQTKHLGIKTERFIIAINSNEILIDVSGCRDFRFYTFECSTPSHHTVQKPIRVHVGFRGERWETPFFGVRQFLNHLMEIFHQTKLDSLHISTADPECSNELKGMEFGWLSMMSMTSDNNSSQDEDALRQFSGKTDSICLNRNPFSIEPSKQMQMILTRNMNVVSTKCDLNDVFVTNARSFTAFLKIEDVNIFLKHWMHRSDRKLKSAWFDLDAFRWDVEDVLEPLFKGIAYHVAPADREFIVHLPKKLSGCGDYRVIGGYDVRRNDGMTATIIVADRANVFLKMFFWI”, the “soluble on expression in E. coli” value was “not soluble”.
In the case of “MNASDFRRRGKEMVDYMADYLEGIEGRQVYPDVQPGYLRPLIPATAPQEPDTFEDILQDVEKIIMPGVTHWHSPYFFAYFPTASSYPAMLADMLCGAIGCIGFSWAASPACTELETVMMDWLGKMLQLPEAFLAGEAGEGGGVIQGSASEATLVALLAARTKVVRRLQAASPGLTQGAVLEKLVAYASDQAHSSVERAGLIGGVKLKAIPSDGKFAMRASALQEALERDKAAGLIPFFVVATLGTTSCCSFDNLLEVGPICHEEDIWLHVDAAYAGSAFICPEFRHLLNGVEFADSFNFNPHKWLLVNFDCSAMWVKRRTDLTGAFKLDPVYLKHSHQGSGLITDYRHWQLPLGRRFRSLKMWFVFRMYGVKGLQAYIRKHVQLSHEFEAFVLQDPRFEVCAEVTLGLVCFRLKGSDGLNEALLERINSARKIHLVPCRLRGQFVLRFAICSRKVESGHVRLAWEHIRGLAAELLAAEEGKAEIKS”, the “soluble on expression in E. coli” value is reported as “soluble”.
For “MSLKNTLILGIESSCDETAASVVKNGNEIISSVVASQIESHKRFGGVVPEIASRHHVEQITLVIEEALKQANVTMDDLDGVAVTEGPGLVGALLIGVNAAKTLAFMHNLPLVGVHHIAGHIYANRFETEFKFPLLSLVVSGGHTELVLMKADNEFEIIGETRDDAAGEAYDKVARTLGLAYPGGVQIDKLAKDGEDTFHFPRAMMDEGSFDFSFSGLKSSFINTLHNLRQRGEEPNPNDMAASFQASVVDVLVSKTIRAAKQYDVKQLLLAGGVAANQGLRERLIQEVKLELPETELIIPPLALCGDNAAMIAAAGTVSFLQGKRSGFDMNANPGLLLEDIEGHHHHHH”, the “soluble on expression in E. coli” value was “soluble”.
For “MMSGAEEPVAIIFPQSASDGVEVLYQEFSFGRYFNQIAAGVLRGIVQTRQPRQPLRILEVGGGTGGTTAWLLPELNGVPALEYHFTDISALFTRRAQQKFADYDFVKYSELDLEKEAQSQGFQAQSYDLIVAANVIHATRHIGRTLDNLRPLLKPGGRLLMREITQPMRLFDFVFGPLVLPLQDLDAREGELFLTTAQWQQQCRHAGFSKVAWLPQDGSPT”, the “soluble on expression in E. coli” value was “not soluble”.
For “MTTAAEIITVEKLNDFDYKVALQQQMVAAQNGAAAAVLRPHQIGSSPEAPQSQTSGGSTEQLQQQPLPPPTQQKQQQPLTIGPVAPNDRSTSSSSTDGPRRLHVSNIPFKYREPDLTAMFEKVGPVVDVEIIFNERGSKGFGFVTMQNPDDADRARAEFNGTTIEGRRVEVNLATQRVHNKKAKPLMSVGVDAMSAQNALISQQQQIQRAALLQQQLLAQQFLVPRHQQLMMPPTSAAAISQLQALQYQQALLAAQQQQQQMQNPQFLLSLQQQQQAQAQAPPTSMAQLIQHQQQFAMDPMAQAQAQAAQAQMVTLIAFEQQRMQLQAAAAAAQGRGVPQPGRIPTSTATTGSSQNQVAAGSIGEQYLQQSMQGAVPANFHHHSQALHPAAAAAAALQRRFAPY”, the “soluble on expression in E. coli” value was “not soluble”.
In the case of “MALLERILARDNLITALKRVEANQGAPGIDGVSTDQLRDDVRAHWSTIRAQLLAGTYRPAPVRRVEIPKPGGGTRQLGIPTVVDRLIQQAILQELTPIFDPDFSPSSFGFRPGRNAHDAVRQAQGYIQEGYRYVVDMDLEKFFDRVNHDILMSRVARKVKDKRVLKLIRAYLQAGVMIEGVKVQTEEGTPQGGPLSPLLANILLDDLDKELEKRGLKFCRYADDCNIYVKSLRAGQRVKQSIQRFLEKTLKLKVNEEKSAVDRPWKRAFLGFSFTPERKARIRLAPRSIQRLKQRIRQLTNPNWSISMPERIHRVNQYVMGWIGYFRLVETPSVLQTIEGWIRRRLRLCQWLQWKRVRTRIRELRALGLKETAVMEIANTRKGAWRTTKTPQLHQALGKTYWTAQGLKSLTQRYFELRQG”, the “soluble on expression in E. coli” value is reported as “not soluble”.
